From patent publication US20260028400A1 (AIMED BIO, published 2026)

Tests used:
[1] = target: ROR1 expressed on cell surface (Jeko-1 cell line, AMB-LC-0003T and AMB-LC-0002T patient-derived lung cancer … (human, UniProt Q01973 30-937)); assay: cell-based or functional assay
FZD = target: T1, FZD (human, UniProt Q01973); assay: scFv ELISA on coated domain, anti-HA-HRP, OD450
T1 construct: frizzled domain, His tag; also called Frizzled domain; human ROR1-frizzled domain
Protocol: (§1) Thereafter, the plate was treated with each scFv and reacted for 2 hours, followed by washing four times using PBST and distilled water. After binding at room temperature for 1 hour using an HRP-conjugated anti-HA antibody (Roche, 12013819001, Anti-HA-Peroxidase, High Affinity) capable of binding to the HA tag, washing was performed six times using PBST and distilled water. After color development by adding TMB substrate solution (Thermo Scientific, 34029, 1-Step™ Ultra TMB-ELISA Substrate Solution), the color reaction was stopped with stop solution (Invitrogen, SS04, ELISA Stop Solution), and the absorbance was measured at OD 450 nm. The scFv binding to each domain was analyzed through ELISA.

Ig-like [2] = target: T2, Ig-like (human, UniProt Q01973); assay: scFv ELISA on coated domain, anti-HA-HRP, OD450
T2 construct: Ig-like domain, His tag; also called Ig-like domain; human ROR1-immunoglobulin domain
Protocol: as §1

FZD+KRD = target: T3, FZD+KRD (human, UniProt Q01973); assay: scFv ELISA on coated domain, anti-HA-HRP, OD450
T3 construct: frizzled plus kringle domains, His tag; also called FK domain; human ROR1-frizzled-kringle domain
Protocol: as §1

Ig-like [3] = target: T2, Ig-like; assay: ELISA, IgG on coated domain, OD450
Protocol: ELISA was performed to analyze the binding domain using the IgG antibody of the selected clone.
After washing with PBST and distilled water, binding at room temperature for 1 hour using a goat-derived HRP-conjugated anti-human antibody (Invitrogen, 31482, Goat anti-Human IgG F(ab′)₂ Secondary Antibody, HRP) and then washing again using PBST and distilled water were performed. After color development by adding TMB substrate solution (Thermo Scientific, 34029, 1-Step™ Ultra TMB-ELISA Substrate Solution), the color reaction was stopped with stop solution (Invitrogen, SS04, ELISA Stop Solution), and the absorbance was measured at OD 450 nm. The anti-ROR1 antibody clone binding to each domain was analyzed through ELISA (FIG. 3).

human ROR1 [4] = target: T4, human ROR1 (human, UniProt Q01973 30-403, limits assumed); assay: SPR (Biacore 3000), human ROR1 on CM5 chip, IgG injected, 1:1 Langmuir
T4 construct: also called human ROR1 protein
Protocol: (§2) To more quantitatively analyze the binding ability of the anti-ROR1 antibody to ROR1, SPR (surface plasmon resonance) was performed. A Biacore 3000 device (GE Healthcare) was used. Using the amine coupling method, human ROR1 or mouse ROR1 was diluted with 10 mM sodium acetate, pH 4.5 and immobilized on a CM5 sensor chip (GE Healthcare) at 300 response units (RU). The activated portion remaining on the surface of the sensor chip was deactivated by adding 1 M ethanolamine-HCl (pH 8.5).

mouse ROR1 [5] = target: T5, mouse ROR1 (mouse, UniProt Q9Z139 30-403, limits assumed); assay: ELISA, IgG on coated mouse ROR1, OD450
T5 construct: also called mouse ROR1 protein
Protocol: (§3) A 96-well plate was coated at 4° C. for 16 hours with each of human ROR1 and mouse ROR1 proteins at a concentration of 2 μg/ml and then blocked using […]. […] After washing with PBST and distilled water, binding at room temperature for 1 hour using a goat-derived HRP-conjugated anti-human antibody (Invitrogen, 31482, Goat anti-Human IgG F(ab′)₂ Secondary Antibody, HRP) and then washing again using PBST and distilled water were performed. After color development by adding TMB substrate solution (Thermo Scientific, 34029, 1-Step™ Ultra TMB-ELISA Substrate Solution), the color reaction was stopped with stop solution (Invitrogen, SS04, ELISA Stop Solution), and the absorbance was measured at OD 450 nm. It was confirmed that the anti-ROR1 antibody of the present invention and the modified antibody thereof with improved biological and physical properties […] to human ROR1 and mouse ROR1 (FIG. 2).

mouse ROR1 [6] = target: T5, mouse ROR1; assay: SPR (Biacore 3000), mouse ROR1 on CM5 chip, IgG injected, 1:1 Langmuir
Protocol: as §2

human ROR1 [7] = target: T4, human ROR1; assay: ELISA, IgG on coated human ROR1, OD450
Protocol: as §3

T3 sequence (Q01973 165-395 limits assumed): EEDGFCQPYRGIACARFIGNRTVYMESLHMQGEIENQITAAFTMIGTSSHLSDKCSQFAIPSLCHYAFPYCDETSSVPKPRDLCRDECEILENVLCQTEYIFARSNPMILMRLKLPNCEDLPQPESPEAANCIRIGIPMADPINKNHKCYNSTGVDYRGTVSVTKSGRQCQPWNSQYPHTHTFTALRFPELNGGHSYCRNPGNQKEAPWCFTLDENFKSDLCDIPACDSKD
T2 sequence (Q01973 39-151 limits assumed): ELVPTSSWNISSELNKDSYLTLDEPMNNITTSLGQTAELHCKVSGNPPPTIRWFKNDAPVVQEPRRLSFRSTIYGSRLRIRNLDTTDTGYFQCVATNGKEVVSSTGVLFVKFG
T4 sequence (Q01973 30-403 limits assumed): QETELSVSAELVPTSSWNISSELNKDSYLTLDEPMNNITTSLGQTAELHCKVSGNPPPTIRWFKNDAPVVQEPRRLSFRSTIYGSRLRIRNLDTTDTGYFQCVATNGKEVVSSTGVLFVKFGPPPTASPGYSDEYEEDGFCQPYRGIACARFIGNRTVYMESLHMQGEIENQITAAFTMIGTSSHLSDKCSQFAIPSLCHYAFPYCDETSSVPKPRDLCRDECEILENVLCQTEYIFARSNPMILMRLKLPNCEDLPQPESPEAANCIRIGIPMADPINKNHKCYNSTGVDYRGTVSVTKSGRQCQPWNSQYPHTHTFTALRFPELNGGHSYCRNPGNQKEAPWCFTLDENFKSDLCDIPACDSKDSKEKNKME
T5 sequence (Q9Z139 30-403 limits assumed): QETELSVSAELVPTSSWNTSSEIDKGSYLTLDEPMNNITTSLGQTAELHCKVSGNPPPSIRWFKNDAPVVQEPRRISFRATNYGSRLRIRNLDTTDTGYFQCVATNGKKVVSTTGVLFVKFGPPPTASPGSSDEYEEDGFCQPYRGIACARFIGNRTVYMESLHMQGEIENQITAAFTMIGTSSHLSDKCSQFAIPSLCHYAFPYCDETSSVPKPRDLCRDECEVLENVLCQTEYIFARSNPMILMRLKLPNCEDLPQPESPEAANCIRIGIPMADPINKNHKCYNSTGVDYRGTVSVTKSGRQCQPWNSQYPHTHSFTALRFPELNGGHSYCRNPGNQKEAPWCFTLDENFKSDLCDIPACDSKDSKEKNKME
T1 sequence (Q01973 165-305 limits assumed): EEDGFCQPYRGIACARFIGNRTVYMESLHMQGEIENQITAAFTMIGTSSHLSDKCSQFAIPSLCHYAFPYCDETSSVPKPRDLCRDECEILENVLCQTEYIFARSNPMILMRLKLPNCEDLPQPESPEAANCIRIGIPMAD
Chain of ROR1 expressed on cell surface (Jeko-1 cell line, AMB-LC-0003T and AMB-LC-0002T patient-derived lung cancer … (Q01973 30-937): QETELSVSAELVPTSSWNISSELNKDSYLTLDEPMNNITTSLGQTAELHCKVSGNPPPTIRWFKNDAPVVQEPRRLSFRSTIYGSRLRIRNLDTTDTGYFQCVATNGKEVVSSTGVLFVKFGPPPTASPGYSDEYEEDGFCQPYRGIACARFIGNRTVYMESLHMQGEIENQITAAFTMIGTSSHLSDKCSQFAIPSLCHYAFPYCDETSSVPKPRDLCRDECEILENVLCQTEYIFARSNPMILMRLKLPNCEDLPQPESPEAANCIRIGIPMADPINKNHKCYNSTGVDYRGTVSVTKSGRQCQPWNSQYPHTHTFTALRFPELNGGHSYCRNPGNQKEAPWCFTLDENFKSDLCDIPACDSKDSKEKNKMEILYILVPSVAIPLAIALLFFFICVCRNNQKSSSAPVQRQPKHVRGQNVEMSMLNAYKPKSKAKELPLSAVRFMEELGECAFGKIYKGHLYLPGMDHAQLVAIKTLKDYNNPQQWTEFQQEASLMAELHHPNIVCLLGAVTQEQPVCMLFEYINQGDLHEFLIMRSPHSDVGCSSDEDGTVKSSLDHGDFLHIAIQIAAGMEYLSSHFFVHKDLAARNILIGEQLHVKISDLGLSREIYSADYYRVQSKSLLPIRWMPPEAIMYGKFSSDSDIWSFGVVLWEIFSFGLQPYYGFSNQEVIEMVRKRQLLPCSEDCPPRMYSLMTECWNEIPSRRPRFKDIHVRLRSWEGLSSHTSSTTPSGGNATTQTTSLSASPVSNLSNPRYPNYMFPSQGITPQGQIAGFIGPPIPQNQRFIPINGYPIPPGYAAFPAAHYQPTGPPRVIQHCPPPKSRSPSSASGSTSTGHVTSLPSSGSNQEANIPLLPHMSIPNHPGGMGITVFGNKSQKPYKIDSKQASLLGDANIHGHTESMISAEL

Row | binding result (FZD) | binding result (Ig-like [2]) | binding result (FZD+KRD) | Kd (human ROR1 [4]) [nM] | koff (human ROR1 [4]) [s⁻¹] | kon (human ROR1 [4]) [M⁻¹ s⁻¹] | EC50 (read off the curve) (mouse ROR1 [5]) [nM] | Kd (mouse ROR1 [6]) [nM] | koff (mouse ROR1 [6]) [s⁻¹] | kon (mouse ROR1 [6]) [M⁻¹ s⁻¹] | EC50 (read off the curve) (human ROR1 [7]) [nM] | Binder | other results
1 |  |  |  |  |  |  |  |  |  |  |  | P015043-vcPAB-MMAE (antibody, IgG1, V domains shown, maleimidocaproyl-valine-citrulline-p-aminobenzyloxycarbonyl monomethyl auristatin E on cysteine sulfhydryls of reduced disulfides; positions not given; DAR 3.32) VH: EVQLLESGGGLVQPGGSLRLSCAASGFTFSNYDMSWVRQAPGKGLEWVSWISPGGSSIYYADSVKGRFTISRDNSKNTLYLQMNSLRAEDTAVYYCAKTLTRFDYWGQGTLVTVSS VL: QSVLTQPPSASGTPGQRVTISCTGSSSNIGNNNVSWYQQLPGTAPKLLIYYDSHRPSGVPDRFSGSKSGTSASLAISGLRSEDEADYYCGTWDSSLSGYVFGGGTKLTVL | Fold Change of IC50, AMB-LC-0002T/AMB-LC-0003T [1]: 4.8 fold; IC50 (nM), spheroid volume after 6 days of treatment, AMB-LC-0003T (high ROR1 expression) [1]: 34.6 nM; IC50 (nM), spheroid volume, AMB-LC-0002T (very low ROR1 expression) [1]: 165 nM
2 | no binding | binds | no binding |  |  |  |  |  |  |  |  | P015016 scFv (scFv, V domains shown, HA-tagged scFv) VH: EVQLLESGGGLVQTGGSLRLSCAASGFTFSDYAMSWVRQAPGKGLEWVSAISHGGSSKYYADSVKGRFTISRDNSKNTLYLQMNSLRAEDTAVYYCARVSLDFDYWGQGTLVAVSS VL: QSVLTQPPSASGTPGQRVTISCSGSSSNIGSNTFNWYQQLPGTAPKLLIYADSHRPSGVPDRFSGSKSGTSASLAISGLRSEDEADYYCAAWDASLSAYVFGGGTKLTVL | 
3 |  |  |  |  |  |  |  |  |  |  |  | P015043 (antibody, V domains shown) VH: EVQLLESGGGLVQPGGSLRLSCAASGFTFSNYDMSWVRQAPGKGLEWVSWISPGGSSIYYADSVKGRFTISRDNSKNTLYLQMNSLRAEDTAVYYCAKTLTRFDYWGQGTLVTVSS VL: QSVLTQPPSASGTPGQRVTISCTGSSSNIGNNNVSWYQQLPGTAPKLLIYYDSHRPSGVPDRFSGSKSGTSASLAISGLRSEDEADYYCGTWDSSLSGYVFGGGTKLTVL | binding result (Ig-like [3]): no binding (tested: 300 nM)
4 | no binding | binds | no binding |  |  |  |  |  |  |  |  | P015017 scFv (scFv, V domains shown, HA-tagged scFv) VH: EVQLLESGGGLVQPGGSLRLSCAASGFTFSGYAMSWVRQAPGKGLEWVSVISPGSGSKYYADSVRGRFTVSRDNSKNTLYLQMNSLRAEDTAVYYCARYPLLRYAGALYSAYAMDVWGQGTLVTVSS VL: QSVLTQPPSASGTPGQRVTISCSGSSSNIGSNYVSWYQQLPGTAPKLLIYANSHRPSGVPDRFSGSKSGTSASLAISGLRSEDEADYYCGAWDSSLNGYVFGGGTKLTVL | 
5 |  |  |  | 0.00748 | 1.89e-05 | 2.53e+06 | ~0.3 | 0.0416 | 0.000106 | 2.54e+06 | ~0.5 | P015042v1-5 (antibody, V domains shown, Variant of P015042v1, tested as IgG; also called LC G95 substituted with A) VH: EVQLLESGGGLVQPGGSLRLSCAASGFTFSDYAMSWVRQAPGKGLEWVSVISSDGGSIYYADSVKGRFTISRDNSKNTLYLQMNSLRAEDTAVYYCAKDRSRDMEVDFDYWGQGTLVTVSS VL: QSVLTQPPSASGTPGQRVTISCSGSSSNIGSNYVTWYQQLPGTAPKLLIYDSSQRPSGVPDRFSGSKSGTSASLAISGLRSEDEADYYCGTWDYSLNAYVFGGGTKLTVL | 
6 |  |  |  | 0.0152 | 4.08e-05 | 2.66e+06 | ~0.3 | 0.0831 | 0.000226 | 2.71e+06 | ~0.5 | P015042v1-2 (antibody, V domains shown, Variant of P015042v1, tested as IgG; also called HC G55 substituted with K) VH: EVQLLESGGGLVQPGGSLRLSCAASGFTFSDYAMSWVRQAPGKGLEWVSVISSDKGSIYYADSVKGRFTISRDNSKNTLYLQMNSLRAEDTAVYYCAKDRSRDMEVDFDYWGQGTLVTVSS VL: QSVLTQPPSASGTPGQRVTISCSGSSSNIGSNYVTWYQQLPGTAPKLLIYDSSQRPSGVPDRFSGSKSGTSASLAISGLRSEDEADYYCGTWDYSLNGYVFGGGTKLTVL | 
7 |  |  |  | 0.033 | 7.22e-05 | 2.19e+06 | ~0.3 | 0.192 | 0.00043 | 2.24e+06 | ~0.5 | P015042v1-1 (antibody, V domains shown, Variant of P015042v1, tested as IgG; also called HC G55 substituted with V) VH: EVQLLESGGGLVQPGGSLRLSCAASGFTFSDYAMSWVRQAPGKGLEWVSVISSDVGSIYYADSVKGRFTISRDNSKNTLYLQMNSLRAEDTAVYYCAKDRSRDMEVDFDYWGQGTLVTVSS VL: QSVLTQPPSASGTPGQRVTISCSGSSSNIGSNYVTWYQQLPGTAPKLLIYDSSQRPSGVPDRFSGSKSGTSASLAISGLRSEDEADYYCGTWDYSLNGYVFGGGTKLTVL | 
8 |  |  |  | 0.0262 | 7.95e-05 | 3.03e+06 | ~0.3 | 0.127 | 0.000548 | 4.3e+06 | ~0.5 | P015042v1-3 (antibody, V domains shown, Variant of P015042v1, tested as IgG; also called LC S51 substituted with A) VH: EVQLLESGGGLVQPGGSLRLSCAASGFTFSDYAMSWVRQAPGKGLEWVSVISSDGGSIYYADSVKGRFTISRDNSKNTLYLQMNSLRAEDTAVYYCAKDRSRDMEVDFDYWGQGTLVTVSS VL: QSVLTQPPSASGTPGQRVTISCSGSSSNIGSNYVTWYQQLPGTAPKLLIYDASQRPSGVPDRFSGSKSGTSASLAISGLRSEDEADYYCGTWDYSLNGYVFGGGTKLTVL | 
9 |  |  |  | 0.0213 | 4.34e-05 | 2.04e+06 | ~0.3 | 0.132 | 0.000282 | 2.14e+06 | ~0.5 | P015042v1-4 (antibody, V domains shown, Variant of P015042v1, tested as IgG; also called LC S51 substituted with K) VH: EVQLLESGGGLVQPGGSLRLSCAASGFTFSDYAMSWVRQAPGKGLEWVSVISSDGGSIYYADSVKGRFTISRDNSKNTLYLQMNSLRAEDTAVYYCAKDRSRDMEVDFDYWGQGTLVTVSS VL: QSVLTQPPSASGTPGQRVTISCSGSSSNIGSNYVTWYQQLPGTAPKLLIYDKSQRPSGVPDRFSGSKSGTSASLAISGLRSEDEADYYCGTWDYSLNGYVFGGGTKLTVL | 
10 |  |  |  |  |  |  |  |  |  |  |  | P015004-vc-PAB-MMAE (antibody, IgG1, V domains shown, maleimidocaproyl-valine-citrulline-p-aminobenzyloxycarbonyl monomethyl auristatin E on cysteine sulfhydryls of reduced disulfides; positions not given; average 3.0 drugs per antibody) VH: EVQLLESGGGLVQPGGSLRLSCAASGFTFSDYAMAWVRQAPGKGLEWVSIIYPGDSETIYSPSFEGRFTISRDNSKNTLYLQMNSLRAEDTAVYYCARDTYWEGYFDLWGQGTLVTVSS VL: EIVLTQSPGTLSLSPGERATLSCRASQGISNYLAWYQQKPGQAPRLLIYDASNLESGIPDRFSGSGSGTDFTLTISRLEPEDFAVYYCQQYANLPYTFGQGTKVEIK | Fold Change of IC50, AMB-LC-0002T/AMB-LC-0003T [1]: 15 fold; IC50 (nM), spheroid volume after 6 days of treatment, AMB-LC-0003T (high ROR1 expression) [1]: 10.6 nM; IC50 (nM), spheroid volume, AMB-LC-0002T (very low ROR1 expression) [1]: 160 nM
11 | no binding | no binding | no binding |  |  |  |  |  |  |  |  | P015004 scFv (scFv, V domains shown, HA-tagged scFv) VH: EVQLLESGGGLVQPGGSLRLSCAASGFTFSDYAMAWVRQAPGKGLEWVSIIYPGDSETIYSPSFEGRFTISRDNSKNTLYLQMNSLRAEDTAVYYCARDTYWEGYFDLWGQGTLVTVSS VL: EIVLTQSPGTLSLSPGERATLSCRASQGISNYLAWYQQKPGQAPRLLIYDASNLESGIPDRFSGSGSGTDFTLTISRLEPEDFAVYYCQQYANLPYTFGQGTKVEIK | 
12 | no binding | no binding | no binding |  |  |  |  |  |  |  |  | P015018 scFv (scFv, V domains shown, HA-tagged scFv) VH: EVQLLESGGGLVQPDGSMRLICAASGFTFSSYAKHWVRQAPGKGLEWVSEIYTSGSTNYNPSLKSRFTISRDNSKNTLYLQMNSLRAEDTAVYYCARDTWWEGYFDLWGQGTLVTVSS VL: EIVLTQSPGTLSLSPGERATLSCRASQSVSTYLAWYQQKPGQAPRLLIYDASSLESGIPDRFSGSGSGTDFTLTISRLEPEDFAVYYCQQSYNLPHTFGQGTKVEIK | 
